B1: KLHL14 (parent)
chain: WLYCYDPVMDVWARKQDMNTKRAI
B2: NR2F2 (parent)
chain: VAHVESLQEKSQCALEEYVRSQYP
B3: SEPHS2 (parent)
chain: KASGRFGLLQGTSAETSGGLLICL

Variants of: B1
Assay: protein stability index of a GFP-peptide fusion (GPS, HEK-293T) (PSI 1-6); higher = more stable
Details: c terminus: a fixed tail appended
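Further: lentivirally expressed fusions sorted by FACS into six bins by GFP to DsRed ratio, PSI derived from sequencing read proportions per bin multiplied by bin number.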

Protein stability index of substitutions, site by site:
M18: A 2.15 | I 2.28 | L 1.82
V8: G 1.58 | Q 1.78 | Y 2.14
L2: E 2.61 | C 2.18
A13: E 2.36 | C 1.81 | T 2.1
K15: E 2.21 | S 1.79
M9: C 2.35 | A 2.62
D10: S 1.99 | P 1.72 | Y 1.92
R14: W 1.85
A23: S 1.97 | Q 2.11 | M 2.22
W1: C 2.27 | P 2.88 | R 2.55 | F 1.99 | V 1.63
I24: R 1.4 | M 2.16 | N 2.29 | W 2.39
V11: R 2.1 | H 1.61 | A 1.93 | Y 1.92
R22: N 1.82 | M 1.88
W12: K 2.03 | A 1.89 | H 2.04
Q16: H 2.27
D6: S 1.7 | K 2.11 | V 2.23 | Y 2.54 | M 2.33 | C 2.14
K21: A 1.78
N19: P 1.93 | M 2.13 | Y 1.72
D17: L 2.48 | K 1.65 | V 2.06 | I 1.94
T20: G 2.57 | D 2.15 | C 1.62

Variants of: B2
Assay: as above
Details: c terminus: a fixed tail appended

Protein stability index of substitutions, site by site:
A2: R 3.55 | V 3.27 | C 2.54 | I 2.56 | N 3.1 | W 2.29 | G 3.53 | S 3.87 | Q 3.33 | E 4.27 | Y 3.25 | P 3.76 | H 2.98 | D 3.85 | T 3.73 | F 2.59 | L 2.85 | M 3.03 | K 3.48
V4: C 3.81 | D 4.06 | A 4.11 | E 4.37 | G 3.94 | I 3.45 | H 4.06 | F 2.85
H3: V 2.83 | Q 3.81 | S 3.68 | P 4.09 | F 2.63 | A 3.48 | C 3.42 | G 3.75 | N 3.77 | L 2.38 | M 3.36 | I 2.55 | D 4.6 | K 3.43 | Y 2.77 | E 4.95 | W 2.26 | T 3.86 | R 3.45
V1: A 3.29 | C 2.66 | R 3.39 | Y 3.39 | M 3.89 | Q 3.89 | K 3.66 | T 4.19 | H 3.55 | W 3.12 | S 3.53 | L 3.5 | D 4.15 | N 4.01 | P 4.13 | F 3.03 | E 4.24 | G 3.79 | I 3.52

Variants of: B3
Assay: as above
Details: c terminus: a fixed tail appended

Protein stability index of substitutions, site by site:
L21: M 2.35 | D 2.12 | A 1.04 | V 2.08 | R 1.57 | K 1.45 | N 2.94 | T 2.38 | S 2.68 | E 1.38 | H 2.21 | Y 1.32 | P 2.44 | Q 2.08 | G 1.53
G11: R 3.92 | T 4.7 | H 2.12 | Q 2.54 | S 1.86 | K 3.04 | N 2.76 | M 2.37
L20: P 2.39 | A 2.87 | K 1.95 | H 2.07 | G 1.96 | N 2.63 | S 1.94 | E 1.82 | Q 2.58
S13: V 4.84 | M 2.24 | K 2.7 | Q 1.5 | D 2.01
G18: D 2.67 | Q 2.5 | C 3.15 | K 2.4 | N 2.2 | P 2.98
L9: P 2.32 | E 2.76 | I 2.41 | N 1.78 | Y 2.09 | V 1.74 | R 2.98
K1: W 2.52 | N 1.95 | D 2.07 | G 1.44 | S 3.13 | T 1.69 | L 2.28 | E 2.6 | C 2.13
L24: K 2.67 | F 4.05 | S 1.9 | A 1.24 | E 3.13 | H 1.89 | D 2.99 | P 2.8 | R 2.55 | T 2.43 | Y 2.62 | N 2.11
E15: D 2.1 | A 2.02 | R 1.37 | Y 4.55 | T 2.48 | W 1.66 | C 2.82 | I 1.91
Q10: S 1.71 | V 3.11 | M 3.87 | I 3.54 | E 2.2 | P 2.19 | N 2.95
I22: K 2.14 | Y 1.71 | A 1.82 | F 4.06 | E 2.64 | M 1.28 | D 1.72 | P 3.43 | H 2.42 | W 1.58 | S 2.83 | C 2.02 | G 2.47 | T 2.33
A14: L 2.44 | H 2.43 | Y 2.24 | C 1.81 | E 2.62 | T 1.72 | N 2.93 | Q 3.85
L8: M 2.26 | A 2.02 | K 3.37 | V 3.22 | Y 1.85 | F 2.18 | W 2.08 | I 2.17 | G 3.65 | C 3.4
T16: I 2.5 | S 1.61 | M 2.06 | R 2.58 | H 1.88 | F 3.47
C23: K 1.53 | S 1.81 | D 2.02 | T 1.32 | P 2.02 | A 1.93 | F 3.71 | Q 1.73 | H 4.17 | M 1.49 | N 1.79
G19: H 1.74 | T 1.74 | Q 2.1 | L 2.19 | R 2.62 | M 2.76 | A 3.71 | I 2.54 | Y 1.89
R5: V 3.1 | K 2.97 | I 3.36 | A 5.51 | C 2.27 | F 3.72 | T 3.23 | W 1.66 | L 3.49 | H 3.5 | D 2.61
G7: D 3.42 | L 3.5 | Y 2.71 | T 1.88 | S 2.55 | K 3.27 | I 2.32 | N 2.13 | H 2.78 | A 3.63 | W 2.21
F6: E 2.37 | Y 1.75 | T 3.52 | K 1.79 | L 2.48 | S 1.81 | M 2.44 | V 1.57 | I 2.31 | W 4.73 | D 1.03 | Q 2.79
A2: G 1.38 | W 2.41 | Y 2.29 | D 2.81 | V 3.69 | S 3.5 | Q 3.26
S17: W 3.02 | N 2.67 | G 2.08 | F 2.78 | L 1.18
T12: F 3.31 | L 3.67 | E 2.52
S3: T 3.36 | D 2.07 | H 4.72 | M 1.51 | E 2.76 | A 1.55 | P 3.31 | F 1.71 | R 1.82
G4: S 3.04 | P 1.95 | L 2.01 | D 2.9 | Q 2.76 | E 3.09 | K 3.51 | A 4.01 | T 3.11
